Reference: doi:10.1101/2020.08.16.253419v1

Tested on: Nc1nc2c(ncn2[C@@H]2O[C@H](COP(=O)(O)OP(=O)(O)OP(=O)(O)O)[C@@H](O)[C@H]2O)c(=O)[nH]1
Assay: malachite green
Format: biochemical, Streptococcus thermophilus
Details: 20 mM Tris pH 8.0, 200 mM KCl, 5 mM MgCl2, 37 °C

Substance: StNFeoB (Streptococcus thermophilus LMG 18311; E66Q/E67Q)
- Km: 187 ± 20 µM
